Reference: patent US20220363770A1 (Amgen, published 2022)
Where a chain is given by its changes, count along the chain named. Values belong to the binder of their own block, whether it stands above or below them.

Experiments:
[1] = molecular target: T1, human CGRP receptor (human CRLR / human RAMP1 heterodimer) (human, UniProt Q16602 23-461; O60894 27-148); test: cell-based or functional assay
[2] = molecular target: T2, cynomolgus monkey CGRP receptor (cynomolgus monkey, UniProt A0A2K5VQ71 34-472); test: yeast-displayed Fab, FACS, detergent-solubilized lysate of cynomolgus CGRP receptor/HEK cells vs blank cells
T2 construct: whole, on cells; Presented as detergent-solubilized lysate of HEK cells expressing the cynomolgus receptor; also called Cyno CGRP Receptor; Cynomolgus Monkey CGRP Receptor/HEK detergent-solubilized cell lysate
T2 sequence (A0A2K5VQ71 entry or part of it): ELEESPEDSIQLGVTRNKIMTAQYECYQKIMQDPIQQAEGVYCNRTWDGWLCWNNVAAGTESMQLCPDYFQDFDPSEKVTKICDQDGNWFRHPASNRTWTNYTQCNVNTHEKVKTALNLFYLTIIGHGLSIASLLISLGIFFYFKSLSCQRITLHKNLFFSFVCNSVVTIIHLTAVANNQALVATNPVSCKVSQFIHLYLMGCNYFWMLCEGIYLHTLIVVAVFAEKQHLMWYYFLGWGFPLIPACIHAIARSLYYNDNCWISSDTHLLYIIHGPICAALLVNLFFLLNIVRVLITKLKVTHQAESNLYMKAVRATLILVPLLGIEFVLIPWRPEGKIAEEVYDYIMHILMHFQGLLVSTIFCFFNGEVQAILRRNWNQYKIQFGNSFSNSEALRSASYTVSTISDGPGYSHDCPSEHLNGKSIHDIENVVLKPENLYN

[3] = molecular target: T1, human CGRP receptor (human CRLR / human …); test: yeast-displayed Fab, FACS, detergent-solubilized lysate of human CGRP receptor-expressing cells vs blank cells
[4] = molecular target: T3, human CGRP receptor extracellular domain (ECD) (human, UniProt Q16602 23-138; O60894 27-117); test: yeast-displayed Fab, FACS, 1 nM human CGRP receptor ECD
T3 construct: also called CGRP receptor ECD; human CGRP receptor ECD
T3 sequence (Q16602 23-138 limits assumed, chain 1 of 2): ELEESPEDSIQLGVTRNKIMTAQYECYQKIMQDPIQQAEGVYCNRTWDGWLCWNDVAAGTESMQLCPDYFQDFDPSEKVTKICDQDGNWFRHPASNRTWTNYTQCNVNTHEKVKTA
T3 sequence (O60894 27-117 limits assumed, chain 2 of 2): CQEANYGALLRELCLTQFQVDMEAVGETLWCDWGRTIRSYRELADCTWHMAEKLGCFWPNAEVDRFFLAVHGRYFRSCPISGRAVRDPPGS

[5] = molecular target: T3, human CGRP receptor extracellular …; test: yeast-displayed Fab, FACS, 10 nM human CGRP receptor ECD
[6] = molecular target: T4, human PAC1 receptor extracellular domain (ECD) (human, UniProt P41586 24-153); test: yeast-displayed Fab, FACS, 10 nM PAC1 receptor ECD
T4 construct: also called PAC1 receptor ECD; PAC1 ECD
T4 sequence: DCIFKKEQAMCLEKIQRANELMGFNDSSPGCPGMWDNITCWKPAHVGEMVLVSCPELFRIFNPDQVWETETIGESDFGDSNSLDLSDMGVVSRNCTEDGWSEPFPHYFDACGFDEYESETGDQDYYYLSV

T1 sequence (Q16602 23-461 limits assumed, chain 1 of 2): as the sequence (A0A2K5VQ71 entry or part of it) above, with N55D, V431L counted along it
T1 sequence (O60894 27-148 limits assumed, chain 2 of 2): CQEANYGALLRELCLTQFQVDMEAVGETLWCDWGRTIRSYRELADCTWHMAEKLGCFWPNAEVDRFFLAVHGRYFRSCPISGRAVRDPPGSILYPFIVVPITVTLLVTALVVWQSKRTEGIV

B2: 4E4.2 parental antibody, bivalent monoclonal antibody (antibody, human IgG1, lambda, N297G, V domains shown)
VH: QVQLVESGGGVVQPGRSLRLSCAASGFTFSSFGMHWVRQAPGKGLEWVAVISFDGSIKYSVDSVKGRFTISRDNSKNTLFLQMNSLRAEDTAVYYCARDRLNYYESSGYYHYKYYGMAVWGQGTTVTVSS
VL: QSVLTQPPSVSAAPGQKVTISCSGSSSNIGNNYVSWYQQLPGTAPKLLIYDNNKRPSGIPDRFSGSKSGTSATLGITGLQTGDEADYYCGTWDSRLSAVVFGGGTKLTVLG
Average IC50 (nM), cell-based cAMP assay, SK-N-MC cells, 3 nM human α-CGRP [1]: 0.45 nM
Fold-improvement over 4E4 Ab (IC50, cAMP assay) [1]: 1.2 fold
Run 1 IC50 (nM), cell-based cAMP assay, SK-N-MC cells, 3 nM human α-CGRP [1]: 0.34 nM
Run 2 IC50 (nM), cell-based cAMP assay, SK-N-MC cells, 3 nM human α-CGRP [1]: 0.56 nM

B4: anti-CGRP receptor variant antibody 05, bivalent monoclonal antibody (antibody, human IgG1, lambda, N297G, V domains shown)
VH: B2 VH
VL: QSVLTQPPSVSAAPGQKVTISCSGSFSNIGRSTVSWYQQLPGTAPKLLIYDNRWRAGGIPDRFSGSKSGTSATLGITGLQTGDEADYYCGTWDYQWKAVVFGGGTKLTVLG
Average IC50 (nM), cell-based cAMP assay, SK-N-MC cells, 3 nM human α-CGRP [1]: 0.2 nM
Fold-improvement over 4E4 Ab (IC50, cAMP assay) [1]: 2.7 fold
Run 1 IC50 (nM), cell-based cAMP assay, SK-N-MC cells, 3 nM human α-CGRP [1]: 0.15 nM
Run 2 IC50 (nM), cell-based cAMP assay, SK-N-MC cells, 3 nM human α-CGRP [1]: 0.25 nM

B5: anti-CGRP receptor variant 06, yeast-displayed Fab (Fab, V domains shown)
VH: B2 VH
VL: B2 VL with S26Y, N31R, N32K, Y33S
notes: also called Variant Ab ID 06
Mutant vs. 4E4.2 Parent B/D Ratio [4]: 2.2 fold
Normalized Binding Signal/Display Signal (B/D) [4]: 0.27 ratio
Cyno CGRP Receptor/Blank Cells Specific Binding [2]: 4.8 ratio
Mutant vs. 4E4.2 Parent Specific Binding Ratio [2]: 2.5 fold
Mutant vs. 4E4.2 Parent B/D Ratio [5]: 7.4 fold
Normalized Binding Signal/Display Signal (B/D) [5]: 1.13 ratio
Human CGRP Receptor/Blank Cells Specific Binding [3]: 17.5 ratio
Mutant vs. 4E4.2 Parent Specific Binding Ratio [3]: 2.2 fold
Mutant vs. 4E4.2 Parent B/D Ratio [6]: 1 fold
Normalized Binding Signal/Display Signal (B/D) [6]: 0.1 ratio

B7: anti-CGRP receptor variant 04, yeast-displayed Fab (Fab, V domains shown)
VH: B2 VH with E105R, S107F, H111G, K113H
VL: B2 VL
notes: also called Variant Ab ID 04
Mutant vs. 4E4.2 Parent B/D Ratio [4]: 1.6 fold
Normalized Binding Signal/Display Signal (B/D) [4]: 0.2 ratio
Cyno CGRP Receptor/Blank Cells Specific Binding [2]: 3.1 ratio
Mutant vs. 4E4.2 Parent Specific Binding Ratio [2]: 1.6 fold
Mutant vs. 4E4.2 Parent B/D Ratio [5]: 3.4 fold
Normalized Binding Signal/Display Signal (B/D) [5]: 0.53 ratio
Human CGRP Receptor/Blank Cells Specific Binding [3]: 9.5 ratio
Mutant vs. 4E4.2 Parent Specific Binding Ratio [3]: 1.2 fold
Mutant vs. 4E4.2 Parent B/D Ratio [6]: 1.1 fold
Normalized Binding Signal/Display Signal (B/D) [6]: 0.12 ratio

B8: anti-CGRP receptor variant 13, yeast-displayed Fab (Fab, V domains shown)
VH: B2 VH
VL: B2 VL with S26R, N31R, N32R, Y33T
notes: also called Variant Ab ID 13
Mutant vs. 4E4.2 Parent B/D Ratio [4]: 2.9 fold
Normalized Binding Signal/Display Signal (B/D) [4]: 0.35 ratio
Cyno CGRP Receptor/Blank Cells Specific Binding [2]: 4.8 ratio
Mutant vs. 4E4.2 Parent Specific Binding Ratio [2]: 2.5 fold
Mutant vs. 4E4.2 Parent B/D Ratio [5]: 9.8 fold
Normalized Binding Signal/Display Signal (B/D) [5]: 1.51 ratio
Human CGRP Receptor/Blank Cells Specific Binding [3]: 14.6 ratio
Mutant vs. 4E4.2 Parent Specific Binding Ratio [3]: 1.8 fold
Mutant vs. 4E4.2 Parent B/D Ratio [6]: 1 fold
Normalized Binding Signal/Display Signal (B/D) [6]: 0.11 ratio

B9: anti-CGRP receptor variant 02, yeast-displayed Fab (Fab, V domains shown)
VH: B2 VH
VL: B2 VL with S26R, N31I, N32K, Y33A
notes: also called Variant Ab ID 02
Mutant vs. 4E4.2 Parent B/D Ratio [4]: 1.4 fold
Normalized Binding Signal/Display Signal (B/D) [4]: 0.17 ratio
Cyno CGRP Receptor/Blank Cells Specific Binding [2]: 5.3 ratio
Mutant vs. 4E4.2 Parent Specific Binding Ratio [2]: 2.8 fold
Mutant vs. 4E4.2 Parent B/D Ratio [5]: 3.8 fold
Normalized Binding Signal/Display Signal (B/D) [5]: 0.58 ratio
Human CGRP Receptor/Blank Cells Specific Binding [3]: 14.2 ratio
Mutant vs. 4E4.2 Parent Specific Binding Ratio [3]: 1.8 fold
Mutant vs. 4E4.2 Parent B/D Ratio [6]: 0.9 fold
Normalized Binding Signal/Display Signal (B/D) [6]: 0.1 ratio

B10: anti-CGRP receptor variant 01, yeast-displayed Fab (Fab, V domains shown)
VH: B2 VH
VL: B2 VL with S26Y, N31R, N32Y, Y33S
notes: also called Variant Ab ID 01
Mutant vs. 4E4.2 Parent B/D Ratio [4]: 1.7 fold
Normalized Binding Signal/Display Signal (B/D) [4]: 0.21 ratio
Cyno CGRP Receptor/Blank Cells Specific Binding [2]: 4.6 ratio
Mutant vs. 4E4.2 Parent Specific Binding Ratio [2]: 2.4 fold
Mutant vs. 4E4.2 Parent B/D Ratio [5]: 5.8 fold
Normalized Binding Signal/Display Signal (B/D) [5]: 0.89 ratio
Human CGRP Receptor/Blank Cells Specific Binding [3]: 25.8 ratio
Mutant vs. 4E4.2 Parent Specific Binding Ratio [3]: 3.2 fold
Mutant vs. 4E4.2 Parent B/D Ratio [6]: 0.8 fold
Normalized Binding Signal/Display Signal (B/D) [6]: 0.09 ratio

B13: anti-CGRP receptor variant 09, yeast-displayed Fab (Fab, V domains shown)
VH: B2 VH with D54A, S56E, K58D, S60Y
VL: B2 VL
notes: also called Variant Ab ID 09
Mutant vs. 4E4.2 Parent B/D Ratio [4]: 3 fold
Normalized Binding Signal/Display Signal (B/D) [4]: 0.38 ratio
Cyno CGRP Receptor/Blank Cells Specific Binding [2]: 2.3 ratio
Mutant vs. 4E4.2 Parent Specific Binding Ratio [2]: 1.2 fold
Mutant vs. 4E4.2 Parent B/D Ratio [5]: 10.6 fold
Normalized Binding Signal/Display Signal (B/D) [5]: 1.62 ratio
Human CGRP Receptor/Blank Cells Specific Binding [3]: 10.4 ratio
Mutant vs. 4E4.2 Parent Specific Binding Ratio [3]: 1.3 fold
Mutant vs. 4E4.2 Parent B/D Ratio [6]: 1.6 fold
Normalized Binding Signal/Display Signal (B/D) [6]: 0.17 ratio

Second part, the binder after the results:

Average IC50 (nM), cell-based cAMP assay, SK-N-MC cells, 3 nM human α-CGRP [1]: 0.17 nM
Fold-improvement over 4E4 Ab (IC50, cAMP assay) [1]: 3.1 fold
Run 1 IC50 (nM), cell-based cAMP assay, SK-N-MC cells, 3 nM human α-CGRP [1]: 0.14 nM
Run 2 IC50 (nM), cell-based cAMP assay, SK-N-MC cells, 3 nM human α-CGRP [1]: 0.21 nM
B1: anti-CGRP receptor variant antibody 04, bivalent monoclonal antibody (antibody, human IgG1, lambda, N297G, V domains shown)
VH: B2 VH with E105R, S107F, H111G, K113H
VL: B2 VL

Cyno CGRP Receptor/Blank Cells Specific Binding [2]: 1.9 ratio
Mutant vs. 4E4.2 Parent Specific Binding Ratio [2]: 1 fold
Human CGRP Receptor/Blank Cells Specific Binding [3]: 8 ratio
Mutant vs. 4E4.2 Parent Specific Binding Ratio [3]: 1 fold
B3: 4E4.2 parental Fab, yeast-displayed (Fab, V domains shown)
VH: B2 VH
VL: B2 VL
notes: also called parental 4E4.2 Fab

Mutant vs. 4E4.2 Parent B/D Ratio [4]: 1.4 fold
Normalized Binding Signal/Display Signal (B/D) [4]: 0.17 ratio
Cyno CGRP Receptor/Blank Cells Specific Binding [2]: 4.9 ratio
Mutant vs. 4E4.2 Parent Specific Binding Ratio [2]: 2.5 fold
Mutant vs. 4E4.2 Parent B/D Ratio [5]: 3.1 fold
Normalized Binding Signal/Display Signal (B/D) [5]: 0.48 ratio
Human CGRP Receptor/Blank Cells Specific Binding [3]: 18 ratio
Mutant vs. 4E4.2 Parent Specific Binding Ratio [3]: 2.3 fold
Mutant vs. 4E4.2 Parent B/D Ratio [6]: 1 fold
Normalized Binding Signal/Display Signal (B/D) [6]: 0.1 ratio
B6: anti-CGRP receptor variant 08, yeast-displayed Fab (Fab, V domains shown)
VH: B2 VH
VL: B2 VL with S26Y, N31W, N32W, Y33P
notes: also called Variant Ab ID 08

Mutant vs. 4E4.2 Parent B/D Ratio [4]: 6.7 fold
Normalized Binding Signal/Display Signal (B/D) [4]: 0.82 ratio
Cyno CGRP Receptor/Blank Cells Specific Binding [2]: 5.2 ratio
Mutant vs. 4E4.2 Parent Specific Binding Ratio [2]: 2.7 fold
Mutant vs. 4E4.2 Parent B/D Ratio [5]: 24.6 fold
Normalized Binding Signal/Display Signal (B/D) [5]: 3.78 ratio
Human CGRP Receptor/Blank Cells Specific Binding [3]: 24.4 ratio
Mutant vs. 4E4.2 Parent Specific Binding Ratio [3]: 3.1 fold
B11: anti-CGRP receptor variant 05, yeast-displayed Fab (Fab, V domains shown)
VH: B2 VH
VL: B4 VL
notes: also called Variant Ab ID 05

Mutant vs. 4E4.2 Parent B/D Ratio [4]: 2.8 fold
Normalized Binding Signal/Display Signal (B/D) [4]: 0.35 ratio
Cyno CGRP Receptor/Blank Cells Specific Binding [2]: 10.3 ratio
Mutant vs. 4E4.2 Parent Specific Binding Ratio [2]: 5.4 fold
Mutant vs. 4E4.2 Parent B/D Ratio [5]: 9.7 fold
Normalized Binding Signal/Display Signal (B/D) [5]: 1.5 ratio
B12: anti-CGRP receptor variant 12, yeast-displayed Fab (Fab, V domains shown)
VH: B2 VH
VL: B4 VL with F26R, S32Y, T33S, W54Y, G57Q, Y94W, Q95A, W96T, K97T, A98S
notes: also called Variant Ab ID 12

Mutant vs. 4E4.2 Parent B/D Ratio [4]: 3.3 fold
Normalized Binding Signal/Display Signal (B/D) [4]: 0.4 ratio
Cyno CGRP Receptor/Blank Cells Specific Binding [2]: 3 ratio
Mutant vs. 4E4.2 Parent Specific Binding Ratio [2]: 1.6 fold
Mutant vs. 4E4.2 Parent B/D Ratio [5]: 13.3 fold
Normalized Binding Signal/Display Signal (B/D) [5]: 2.04 ratio
Human CGRP Receptor/Blank Cells Specific Binding [3]: 20.7 ratio
Mutant vs. 4E4.2 Parent Specific Binding Ratio [3]: 2.6 fold
Mutant vs. 4E4.2 Parent B/D Ratio [6]: 0.9 fold
Normalized Binding Signal/Display Signal (B/D) [6]: 0.1 ratio
B14: anti-CGRP receptor variant 10, yeast-displayed Fab (Fab, V domains shown)
VH: B2 VH with T28F, S30G, F32Y, D54A, S56E, K58E, Y59H, S60Y
VL: B2 VL
notes: also called Variant Ab ID 10

Mutant vs. 4E4.2 Parent B/D Ratio [4]: 1.8 fold
Normalized Binding Signal/Display Signal (B/D) [4]: 0.22 ratio
Cyno CGRP Receptor/Blank Cells Specific Binding [2]: 3.1 ratio
Mutant vs. 4E4.2 Parent Specific Binding Ratio [2]: 1.6 fold
Mutant vs. 4E4.2 Parent B/D Ratio [5]: 5.3 fold
Normalized Binding Signal/Display Signal (B/D) [5]: 0.81 ratio
Human CGRP Receptor/Blank Cells Specific Binding [3]: 11.7 ratio
Mutant vs. 4E4.2 Parent Specific Binding Ratio [3]: 1.5 fold
Mutant vs. 4E4.2 Parent B/D Ratio [6]: 1.2 fold
Normalized Binding Signal/Display Signal (B/D) [6]: 0.13 ratio
B15: anti-CGRP receptor variant 07, yeast-displayed Fab (Fab, V domains shown)
VH: B2 VH with T28Y, S30M, S31T, F32Y
VL: B2 VL
notes: also called Variant Ab ID 07
